Assay: yeast display, Sf9 membrane polyspecificity reagent, FACS + sequencing; frameworks hold sequencing errors
Outline: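 Galactose-induced (36–48 hours) yeast carrying a synthetic nanobody display library were exposed to 10% biotinylated, detergent-solubilized Sf9 membrane reagent at 4 °C for 1 hour. FACS followed streptavidin microbead enrichment, using low and high (top ~1%) gates for expression (anti-HA) and reagent binding (streptavidin). Colony PCR, MiSeq 2 × 250 sequencing and CDR-length filtering followed. Labels for polyreactivity reflect the gate of origin.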

Sequence	polyreactivity (PSR sort gate)
QVQLVESGGGLVQAGGSLRLSCAASGSIFIYNVMGWYRQAPGKERELVATIRGSGGSTYYADSVKGRFTISRDNAKNTVYLQMNSLKPEDTAVYYCARRDYPYQWGRAYNYWGQGTQVTVSS	high polyreactivity
QVQLVESGGGLVQAGGSLRLSCAASGRIFRDYAMGWYRQAPVKERELVAAITRSGDTTYYADSVKGRFTISRDNAKNTVYLQMNSLKPEDTAVYYCAARYVSRYYVYRGFEYWGQGTQVTVSS	high polyreactivity
QVQLVESGGGLVQAGGSLRLSCAASGFTFGGNARGWYRQAPGKERELVAAIRRGGSTNYADSVKGRFTISRDNAKNTVYLQMNSLKPEDTAVYYCARDYRSYTGSYDTSYDYWGQGTQVTVSS	high polyreactivity
QVQLVESGGGLVQAGGSLRLSCASSGFIFAYNAMGWYRQAPGKERELVAAISRSGGSTRYADSVKGRFTISRDNAKNTVYLQMNSLIPEDTAVYYCAADWSDYWDWSWYDYWGQGTQVTVSS	high polyreactivity
QVQHVESRGGLVQAGGSLRLSCAASGFTSDSNAMGWYRQAPGKERELVAAIDSGGGSTYYADSVKGRFTISRDNAKNTVYLQMISLKPEDTAVYYCNAEQTPFVASLRVGEYGYWGQGTQVTVSS	low polyreactivity
QVQLVESGGGLVQAGGSLRLSCAASGSIFNYSAMGWYRQAPGKERELVAAITTSGGNTYYADSVQGRFTISRDNAKNTVYLQMNSLKPEDSAVYYCARTVSRYGTGNMDYWGQGTKVTVSS	low polyreactivity
QVQLVESGGGLVQAGGSLRLSCAASGFIFYSNAMGWYRQAPGKERELVAAISRGGGSTYYADSVKGRFTISRDNAKNTVYLQMNSLKPEDTAVYYCAAELYRWYYYWGQGTQVTVSS	high polyreactivity
QVQLVESGGGLVQAGGSLRLRCASSGRNFVPYAMGGDRQAPGTEREFVAAISRSGGSTHYADSVKGRFTISRDNAKNTVYLQMNSLKPEDTAVYYCAADYDLWLWSGYYWGQGTQVTVSS	high polyreactivity
QVQLVESGGGLVQAGGSLRLSCAASGIIFPYYAMGLYRQAPGKERELVAAITSRTGSTYYADSVKGRFTISRDNAKNTVYLQMNSLNTEYTAVYYCIKEREPYGYWSFDYWGQGTQVTVSS	low polyreactivity
QDQLVESGGGSVQAGGSLRLSCAAYGRIYILYAMGWYRQAPGQERELVAAISWSGGSTYYADSVKGRFTISRDNAKKTVDGQRNSLKPEYTAVYYCNVVSKYKHTYDFDYWGQGTQVNVSS	high polyreactivity
QVQLVESGGGLVQAGGSLRLSCAASGSIFGDNAMGWYRQAPGKERELVAAISIVGSTSYADSVKGRFTISRDNAKNTVYLQMNSLKPEDTAVYYCAADTFYSYYDMDYWGQGTQVTVSS	low polyreactivity
QVQLVESGGGLVQAGGSLRLSCAASGSIFVGNAMGLYRQAPGKERELVAAISSSGGRTFYADSVKGRFTISRDIAKNSVYLQMNSLKPEDTAVYYCAAYLWSYVFNLYEYWGQGTQVTVSS	high polyreactivity
QVQLVESGGGLVQAGGSLRLSCAASGRIFNYNAMGWYRQAPGKERELVAAISSGGDTYYADSVKGRFTISRDNAKNTVYLQINSLKPEDTAVYYCGSTFVVKGTRFGYWGQGTQVTVSS	high polyreactivity
QVQLVESGGGLVQAGGSLRLSCAASGSIFDPYAMGWYRQAPGKERELVAAITASGSSTYYADSVKGRFTISRDNAKNTVYLQMNSLIPEDTAVYYCAADRANWEYLLSCLGYDYWGQGTQVTVSS	low polyreactivity
QVQLVESGGGLVQAGGSLRLSCAASGRTFWANTMGWYRQAPGKERELVAAISKRGGSTYYADSVKGRFTISRDNAKNTVYLQMISLKPEDTAVFYCNADKSGWYDYWGQGTQVTVSS	high polyreactivity
QVQLVESGGGLVQAGGSLRLSCAASGSIFYAYGMGWYRQAPGKERELVAAISSRGGSTHYADSVKGRFTISRDNAKNTVYLQMNSLKPEDTAVYYCAARHAYPYRRGDFNYWGQGTQVTVSS	high polyreactivity
QVQLQESSGGLVQAGGSLRMSCAASGTIFHFHIMGWYRQAPGKEREFVAAISYGTSTYYADSVKGRFTISRDNAKNTVYLQMNSQKPEDTGVYYCAVYDYLEVYCWYWGQGTQVTVSS	low polyreactivity
QVQLVESGGGLVQAGGRLRLSCAASVRTFYYYVMGWYRQEPGNERELVAAISSGGSTYYADSVKGRFTISRDNAKNTVYLQMNSLKPEDTAVYYGAATKRYRDSYDYDYWGQGTQVTVSS	high polyreactivity
QVQLVESGGGLVQAGGSLRLSCAASGSIFARYAIGWYRQAPGKERELVAAISSDGSTYYADSVKGRFTISRDNAKNTVYLQMNSLKPEDTAVYYCAARAFYYAGDWYGYWGQGTQVTVSS	high polyreactivity
QVQLVESGGGLVQAGGSLRLSCAASGFTFGSYAMGWYRQAPGKERELVAVITRSGRTNYADSVKGRFTISRDNAKNTVYLQMNSLKPEDTEVYYCNADDVDDEVSPDLTEMDYWGQGTQVTVSS	low polyreactivity
QVQLVESGGGLVQAGGSLRLSCAASGRISQTNAMGWYRQAPGKERELVAAISWRGGSTYYADSVKGRFTISRDNAKNTVYLQMNSLKPEDTAVYYCAVRGKYDRHYYWGQGTQVTVSS	high polyreactivity

Sequence	polyreactivity (PSR sort gate)
QVQLVESGGVLVQPGGSLRLSCAASGSTFQSYTMGWYRQAPGKERELVAAISSSGGRTYYADSVKGRFTISRDNEKNTVYLQMNRLKPEDTAVYYCAAVTKSWRGATWYDYWGQGTHVTVSS	high polyreactivity
QVQLVESGGGLVQAGGSLRLSCAASGITFRYYAMGWYSQAPGKERELVAAITRGGRTNYADSVKGRYTISRDNAKNTVYLQMNSLKPEDTAVYYCAAGRVGRLSEYNYWGQGTQVTVSS	high polyreactivity
QVQLVESGGGLVQAGGSLRLICAASGNIFDVNAMGLYRQAPGKERELVAGITTNGGRTFYADSVKGRFTFSRDNAKNTVYLQMNSLKPEDTAVYYWNARHGRHRRTPFAKYDFWGQGTQVTVSS	high polyreactivity
QVQLVESGGGLVQAGGSLRLSCAASGITFIYYAMGWYSQAPGKDRELVAAISRSGGSTYYADSVKGRFTISRDNAKNTVYLQMNSLKPEETAVYYCAADGSKYSGRVTGDYWGQGTQVTVSS	high polyreactivity
QVQLVESGGGLVQAGGSLRLSCAASGFTFGGYAMGWYRQAPGKERDLVAAITGSGGNTIYADSVKGRFTISRDNAKNTFYLQINSLKPDDTAVYYCNARYTSHTHADCVYLFDYWGQGTQVNVSS	low polyreactivity
QVQLVESGRGLVQAGGSLRLSCAASGYTFSHYAMGWYRQAPGKEMELVAGNTWSGGSTYYADSVKGRFTISRDNAKNTVYLQMNSLKPEDTSVYYCAAKYYWYYSYSGIPLFDYWGQGTQVTVSS	low polyreactivity
QVQLVESGGGLVQAGGSLRLSCAASGFTTSQYAMGWYRQAPGKERDLVAAITSSGSSTYYADSVKGRFTISRDNAKNTVYLQMNSLKPEDTAVYYFNTDAYHRYPGSVWYYYWGQGTQVTVSS	high polyreactivity
QVQLVESGGGLVQAGGSLRLSCAASLIFANYAMGWYRQAPGKERELVAAISSVGRTYYADSVKGRFTISRDNAKNTVYLQMNSLKPEDTAVYYCAAESWFKYDYWGQGTQVTVSS	low polyreactivity
QVQLVESGGGLVQAGGSLRLSCAASGSTFQIYVKGWYRQAPGKERELVAAISGSGVRTYYADSVKGRFTISRDTAKNTVYIQMHSLKPEDTAVYYCAVDYKSDWAYDYWGQGTQVTVSS	high polyreactivity
QVQLVESGGGLVQAGGSLRLSCAASGSIFFANAMGWYRQAPGKERELVATITSGGSTTYADSVKGRFTISRDNAKNTVYLQMNSLKPEDTAVYYCNADYDYGWVFYSNYDYWGQGTQVTVSS	low polyreactivity
QVQLVESWGGLVQAGGSHRLSCAASGRTFPIYAMGWYRQAPGKERELVAAITYSGGSTYYADSVKGRFTISRDNAKNTVYLQMNSLKPEDTAVYYCAVDGTKPYWHQRYDYWGQGTQVTVSS	low polyreactivity
QVQLVESGGGLVQAGGSLRLSCAASGRTLRWYAMGWYRQAPGKERELVAAINWSGTSTYYADSVKGRFTISRDNAKNTVYLQMNSLKPEDTAVYYCAKRVTWNYDWGQGTQVTVSS	high polyreactivity
QLQLVESGGALVQAGGSLRLSCAASGFTFSRNVMGWYRQAPGKERELVAAISSGSTYYADSVKGRFTISRDNAKKTVYLQMNSLKPEDTAVYYCAKRGRLRNYDYWGQGTKVTVSS	high polyreactivity
QVQLVESGGGLVQAGGSLRLSCAASGFIFRRYTMGWYRQAPGKERELVAAISWTGGSTYYADSVKGRFTISRDNAKNTVYLQINRLKPEDTAVYYCNAVLYTPVYDGFDSWGQGTQVTVSS	high polyreactivity
QVQLVESGGGLVQAGGSLRLSCAASGFIFGSYTMGGYRQAPGTERELVAVITCSGSSTYYADSVKGRFTISRDNAKNTVYLQMNSLKPADTAVYYCNAVKFGGYDYWGQGTQVTVSS	high polyreactivity
QVQLQESCGGLVQAGGSQRLSCAASAYIFYFQYMGWYRQAPGKEREFVAAISDGANTNYADSVKGRFTISRDNAKNTEYLQMNSLKPEDTAVYYCAVYADENFYYIYWGQGTEVTVSS	low polyreactivity
QVQLVESGGGLVQAGGSLRLSCAASGRIIYPYVMGWYRQAHGKERELVAAITRSGDRTYYADSVKGRFTISRDNAKNTVYLQMNSLKPEDTAVYYCAATNVRGVYYWGQGTQVTVSS	high polyreactivity
QVQLVESGGGLVQAGGSLRLSCAASGFIFVVYAMGWYRQAPGQERELVAAITYSGGSTYYADSVKGRFTISRDNAKNTVYLQMNSLKPEDTAVYYCAAPEHDREFDYWGQGTQVTVSS	low polyreactivity
QVQLQESGGGLVQAGGSLRLSCAGTGNIIDADFMRWYRQAPGKERELAASSTEGGSTNYAESVKSRFTISRDNANNTVYLQMNSLKPEVTAVYYCAAIAYPYIPTYFDYDSDYFYWGQGTQVTVSR	high polyreactivity
QVQLVESGGGLVQAGGSLRLSCDASGSIFGSYAMGWYRQAPGKEWELVAAISRRGGSTYYADSVKGRFTISRDNAKNTVYLQMNSLKAEDTAVYYCARRDYGVLNKGLGQEGDYWGQGTQVTVSS	low polyreactivity
